The text below walks through data of CN113045647A (NANJING LEGEND BIOTECH CO LTD, dated 2021).

For this assay, the target named is SARS-CoV-2-RBD(6×His融合蛋白，来自金斯瑞生物公司) (SARS-CoV-2, UniProt P0DTC2 319-541). In words: ELISA, E. coli expression supernatant on coated SARS-CoV-2-RBD His. (In general: ELISA stands for enzyme-linked immunosorbent assay.)

B1: 人源Fab抗体AS182561 (Fab, E. coli expression supernatant) (Fab, V domains shown, not shown: large carriers)
VH: EVQLVESGGGLVQPGGSLRLSCAASGFNIYSSYMHWVRQAPGKGLEWVASISPSYSYTSYADSVKGRFTISADTSKNTAYLQMNSLRAEDTAVYYCARYSYYGMDYWGQGTLVTVSA
VL: DIQMTQSPSSLSASVGDRVTITCRASQSVSSAVAWYQQKPGKAPKLLIYSASSLYSGVPSRFSGSRSGTDFTLTISSLQPEDFATYYCQQPPWHGLITFGQGTKVEIK
With B1, the binding result was “binds”.
